Source: patent US20200262898A1 (INTEGRAL MOLECULAR, published 2020)

T1: CD151 (UniProt P48509 1-253, limits assumed)
T1 construct: whole, on cells
T1 sequence (looked up): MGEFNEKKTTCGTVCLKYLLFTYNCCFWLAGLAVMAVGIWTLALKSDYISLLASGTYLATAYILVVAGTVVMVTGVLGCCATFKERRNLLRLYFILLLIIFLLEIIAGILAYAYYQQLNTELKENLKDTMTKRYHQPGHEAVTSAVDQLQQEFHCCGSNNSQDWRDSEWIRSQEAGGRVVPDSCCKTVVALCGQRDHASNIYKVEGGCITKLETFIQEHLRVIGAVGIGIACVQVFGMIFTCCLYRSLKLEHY

T2: CD81 (UniProt P60033 1-236, limits assumed)
T2 construct: whole, on cells
T2 sequence (looked up): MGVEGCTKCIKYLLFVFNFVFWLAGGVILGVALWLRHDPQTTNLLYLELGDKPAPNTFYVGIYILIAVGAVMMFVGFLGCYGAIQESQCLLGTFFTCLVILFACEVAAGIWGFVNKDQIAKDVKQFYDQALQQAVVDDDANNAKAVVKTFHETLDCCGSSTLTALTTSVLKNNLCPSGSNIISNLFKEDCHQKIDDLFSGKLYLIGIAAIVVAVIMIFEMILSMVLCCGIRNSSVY

T3: IGSF8 (UniProt Q969P0 28-613, limits assumed)
T3 construct: whole, on cells
T3 sequence (looked up): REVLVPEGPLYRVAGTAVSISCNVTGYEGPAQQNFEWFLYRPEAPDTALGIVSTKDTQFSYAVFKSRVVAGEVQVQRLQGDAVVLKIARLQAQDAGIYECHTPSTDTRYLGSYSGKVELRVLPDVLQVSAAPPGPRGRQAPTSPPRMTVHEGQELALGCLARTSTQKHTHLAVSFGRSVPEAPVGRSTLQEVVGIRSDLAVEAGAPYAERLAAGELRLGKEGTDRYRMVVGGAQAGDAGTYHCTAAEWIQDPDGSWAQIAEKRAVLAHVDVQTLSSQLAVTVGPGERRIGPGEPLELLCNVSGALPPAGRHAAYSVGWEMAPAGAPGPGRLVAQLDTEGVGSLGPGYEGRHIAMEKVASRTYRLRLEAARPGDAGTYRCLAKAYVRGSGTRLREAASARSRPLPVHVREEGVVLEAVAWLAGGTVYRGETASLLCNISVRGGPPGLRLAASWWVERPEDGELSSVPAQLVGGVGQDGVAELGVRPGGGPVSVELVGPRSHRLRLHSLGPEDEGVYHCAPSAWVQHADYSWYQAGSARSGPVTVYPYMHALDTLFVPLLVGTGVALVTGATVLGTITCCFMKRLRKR

B1: Antibody of light chain D3 (D3chicken) paired with the heavy chain against CD63 (antibody, V domains shown)
VH: AVTLDESGGGLQTPGGALSLVCKASGFTFSDRGMHWVRQAPGKGLEWVAGIRSTGSFTLYGAAVKGRATISRDDGQSTLRLQLNNLRAEDTGTYYCAKSAGGYGCGRGWCGVDDIDAWGHGTEVIVSS
VL: ALTQPSSVSANPGETVKITCSGDDRWYGWYQQKSPGSAPVTLIYSNDKRPSDIPSRFSGSKSGSTGTLTITGVQADDEAVYFCGSRDSSYAGIFGAGTTLTVL
notes: also called HC-CD63
B2: Antibody of light chain D3 (D3chicken) paired with the heavy chain against CD81 (antibody, V domains shown)
VH: AVTLDESGGGLQTPGGALSLVCKASGFSIGDYNMGWVRQAPGKGLEWVAGIDAGGGTWRATAVKGRATISRDNGQSTVRLQLNNLRAEDTATYFCAKSTDSSANCCANSIDAWGHGTEVIVSS
VL: B1 VL
notes: also called HC-CD81
B3: Antibody of light chain E1 (E1chicken) paired with the heavy chain against CD63 (antibody, V domains shown)
VH: B1 VH
VL: ALTQPSSVSANPGETVKITCSGSSGSGYYGWYQQKSPGSAPVTLIYDNDKRPSDIPSRFSGSKSGSTGTLTITGVQADDEAVYFCGSADNNYTGIFGAGTTLTVL
notes: also called HC-CD63
B4: Antibody of light chain E1 (E1chicken) paired with the heavy chain against CD81 (antibody, V domains shown)
VH: B2 VH
VL: B3 VL
notes: also called HC-CD81
B5: Antibody of common light chain C11 (C11chicken) paired with the heavy chain against IGSF8 (antibody, V domains shown)
VH: AVTLDESGGGLQTPGGGLSLVCKASGFSISSYEMQWVRQAPGKGLEWVAGIDDDGSSRAYAPAVKGRATISRDNGQSTVRLQLNNLRAEDTGTYYCAKTIYAATLNAGEIDAWGHGTEVIVSS
VL: ALTQPSSVSANPGETVKITCSGGGSWYGSYYYGWYQQKSPGSAPVTLIYNNDKRPSDIPSRFSGSESGSTATLTITGVQAEDEAVYFCGGYDSTTTDMFGAGTTLTVL
notes: also called HC-IGSF8
B6: Antibody of light chain D3 (D3chicken) paired with the heavy chain against IGSF8 (antibody, V domains shown)
VH: B5 VH
VL: B1 VL
notes: also called HC-IGSF8
B7: Antibody of common light chain C11 (C11chicken) paired with the heavy chain against CD63 (antibody, V domains shown)
VH: B1 VH
VL: B5 VL
notes: also called HC-CD63
B8: Antibody of common light chain C11 (C11chicken) paired with the heavy chain against CD81 (antibody, V domains shown)
VH: B2 VH
VL: B5 VL
notes: also called HC-CD81
B9: Antibody of common light chain C11 (C11chicken) paired with the heavy chain against CD147 (antibody, V domains shown)
VH: AVTLDESGGGLQTPGGGLSLVCKASGFTFSSYAMYWVRQAPGKGLQWVAGISRDGSSGRYGAAVKGRATISRDNGQSTVRLQLNNLRAEDTATYFCAKSGYGDYTSADEIDAWGHGTEVIVSS
VL: B5 VL
notes: also called HC-CD147
B10: Antibody of light chain E1 (E1chicken) paired with the heavy chain against IGSF8 (antibody, V domains shown)
VH: B5 VH
VL: B3 VL
notes: also called HC-IGSF8
B11: Antibody of common light chain B9 (B9chicken) paired with the heavy chain against CD151 (antibody, V domains shown)
VH: AVTLDESGGGLQMPGGALSLVCKASGFTFSSYGMEWVRQAPGKGLEWVAGISSGGGSTDYGTAVKGRATISRDNGQSTVRLQLNNLRAEDTGTYFCAKSAYGGTWDGDDIDAWGHGTEVIVSS
VL: ALTQPSSVSANPGETVKITCSGGGSSNYYGWYQQKSPGSAPVTLIYGTNKRPSDIPSRFSGSKSGSTGTLTITGVQADDEAVYFCGSADSSTNAGIFGAGTTLTVL
notes: also called HC-CD151
B12: Antibody of light chain E1 (E1chicken) paired with the heavy chain against CD151 (antibody, V domains shown)
VH: B11 VH
VL: B3 VL
notes: also called HC-CD151
B13: Antibody of common light chain B9 (B9chicken) paired with the heavy chain against CD63 (antibody, V domains shown)
VH: B1 VH
VL: B11 VL
notes: also called HC-CD63
B14: Antibody of common light chain C11 (C11chicken) paired with the heavy chain against CD151 (antibody, V domains shown)
VH: B11 VH
VL: B5 VL
notes: also called HC-CD151
B15: Antibody of common light chain B9 (B9chicken) paired with the heavy chain against CD147 (antibody, V domains shown)
VH: B9 VH
VL: B11 VL
notes: also called HC-CD147
B16: Antibody of common light chain B9 (B9chicken) paired with the heavy chain against IGSF8 (antibody, V domains shown)
VH: B5 VH
VL: B11 VL
notes: also called HC-IGSF8
B17: Antibody of light chain D3 (D3chicken) paired with the heavy chain against CD151 (antibody, V domains shown)
VH: B11 VH
VL: B1 VL
notes: also called HC-CD151
B18: Antibody of common light chain B9 (B9chicken) paired with the heavy chain against CD81 (antibody, V domains shown)
VH: B2 VH
VL: B11 VL
notes: also called HC-CD81

Target: T4, Fc-binding protein (the ZZ domain of ProA)
T4 construct: domain: ZZ domain of ProA; the construct is not described
Experiment: flow cytometry on cells expressing the Fc-binding ZZ domain on their surface; given as a measure of expression
From the text: (§1) Antibodies were generated using the common light chains B9, F10, C11, and H11 paired with 8 different heavy chains. […] Binding is expressed as Signal:Background for binding to the molecular target of the heavy chain antibody (listed at top of Table 4). Expression is based on binding to cells expressing an Fc-binding protein (the ZZ domain of ProA) (ZZ) on their surface, enabling total antibody to bind and be measured. Detection was using flow cytometry with cells transfected to express the target protein. Background binding S:B is normalized to 1.0, using mock-transfected cells as background. The data in the table below illustrate that the light chains can be used with a variety of heavy chains and the antibody generated from a VH that can bind to the light chains B9 and F10 will function and bind to the target of interest.

S:B Expression | Binder
3.9 S:B | B1
1.8 S:B | B2
24.4 S:B | B3
1.7 S:B | B4
12 S:B | B5
3.2 S:B | B6
8.8 S:B | B7
9.8 S:B | B8
16.6 S:B | B9
2 S:B | B10
9.7 S:B | B11
11.3 S:B | B12
11.3 S:B | B13
11.5 S:B | B14
17 S:B | B15
12.7 S:B | B16
6.5 S:B | B17
10.8 S:B | B18

Target: T1, CD151
Experiment: flow cytometry on cells transfected with the target; signal over mock-transfected cells (background = 1.0)
From the text: as §1

S:B Binding | Binder
27.4 S:B | B11
28.8 S:B | B12
1.4 S:B | B14
47.5 S:B | B17

Target: T2, CD81
Experiment: as above
From the text: as §1

S:B Binding | Binder
1.2 S:B | B2
1.5 S:B | B4
30.9 S:B | B8
0.6 S:B | B18

Target: T5, CD63 (UniProt P08962 2-238, limits assumed)
T5 construct: whole, on cells
Experiment: as above
From the text: as §1

S:B Binding | Binder
20.6 S:B | B1
31.8 S:B | B3
0.8 S:B | B7
2.7 S:B | B13

Target: T3, IGSF8
Experiment: as above
From the text: as §1

S:B Binding | Binder
5.5 S:B | B5
19.4 S:B | B6
18.1 S:B | B10
1.7 S:B | B16
